Reference: patent publication US20250163144A1

Key:
CD38 (human) [1] = target: CD38 (human) (UniProt P28907); experiment: flow cytometry on KMS-12 cells
CD38 (human) [2] = target: CD38 (human) (UniProt P28907); experiment: flow cytometry on KMS-18 cells

MFI (CD38 (human) [1]): 62.4 MFI
MFI (CD38 (human) [2]): 44.5 MFI
Substance: Anti-CD38 HIT2 mAb (antibody)
